EC50 and IC50 data for one molecule are collected here from CN117321082A (APOCOR LTD, dated 2023).

The EC50 is the concentration at which the effect is half-maximal. A word on the IC50: it is the point on the concentration scale where inhibition reaches its midpoint.

Assay [1] has as its target T1, 全长人KLRG1 (full-length human KLRG1 on stably transfected CHOK1 cells) (human, UniProt Q96E93 1-195).
T1 construct: whole, on cells; the cell assays used full-length protein; also called hKLRG1; CHOK1-hKLRG1
T1 sequence (looked up): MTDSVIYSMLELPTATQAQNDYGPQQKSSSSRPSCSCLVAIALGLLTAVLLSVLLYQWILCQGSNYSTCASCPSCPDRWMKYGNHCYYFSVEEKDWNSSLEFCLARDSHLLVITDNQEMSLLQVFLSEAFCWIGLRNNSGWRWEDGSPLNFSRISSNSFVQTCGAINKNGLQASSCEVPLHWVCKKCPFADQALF
Description: FACS on CHOK1 cells expressing full-length human KLRG1, detected with anti-human IgG-Alexa 488.

The target in assay [2] is T1, 全长人KLRG1 (full-length human KLRG1 on …). Description: FACS competition on CHOK1-hKLRG1 cells; competitor 0.3 uM human E-cadherin-ECD-FC-biotin (Example 7).
Assay [3] shares this target. Description: FACS competition on CHOK1-hKLRG1 cells; competitor 0.3 uM human E-cadherin-ECD-FC-biotin, detected with streptavidin-Alexa 488.

B1: PA015 (antibody, human IgG1, kappa, V domains shown)
VH: QVTLRESGPALVKPTQTLTLTCTVSGFSLSTFGMGVGWIRQPPGKALEWLAHIWWDDDKWYELALKSRLTISKDTSKNQVVLTITNMDPVDTATYYCARVIYYGSRSAYYSMDYWGQGTTVTVSS
VL: DVVMTQTPLSLSVTPGQPASISCKSSQSIVHSNAHTYLEWYLQKPGQSPQLLIYKVSNRFSGVPDRFSGSGSGTDFTLKISRVEAEDVGVYYCFQGSHVPVTFGQGTKLEIKR
notes: also called PA015抗体; 抗KLRG1抗体
Molecule B1 returned an EC50 in assay [1] of 1.33 nM. In addition, the IC50 in assay [2] was found to be 5.3 nM; in assay [3] it was 8.05 nM.
